# B1: RHS6-Cy5 (dsDNA)
# DNA 1: CACCATGCAAAGGATGTGCGCGGACTCCCTTCCATTTGCTGGCCTCTTATCTGATA
# DNA 2: TATCAGATAAGAGGCCAGCAAATGGAAGGGAGTCCGCGCACATCCTTTGCATGGTG
# B2: RHS5_12-Cy5 (dsDNA)
# DNA 1: TCGAGAAGCGCTGATTAGCATCTGTCATTA
# DNA 2: TAATGACAGATGCTAATCAGCGCTTCTCGA
# Target: Oct1 DNA binding domain (Oct1-DBD) (human (from pBabe-hOct1), UniProt P14859 280-438)
# Assay: EMSA; EMSA: 0.6X buffer D (1X: 20 mM HEPES, 100 mM KCl, 1 mM DTT), 50 ng/ul poly-dI/dC, 1 ug/ul BSA, on ice 15 min, 6% native PAGE in 0.5X TBE; probe 50 nM (1 nM for)
# Conditions: protein: recombinant; tags: His (pET28a); blunt
# Sequence of Oct1 DNA binding domain (Oct1-DBD) (P14859 280-438): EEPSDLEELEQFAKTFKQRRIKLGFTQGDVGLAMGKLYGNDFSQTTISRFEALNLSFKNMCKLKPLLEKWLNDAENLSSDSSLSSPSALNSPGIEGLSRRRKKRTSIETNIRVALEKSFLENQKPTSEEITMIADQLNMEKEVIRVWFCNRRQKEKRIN
row,Binder,binding result
1,B1,binds
2,B2,binds

# From PMC12069319, “Transcriptional co-regulator OCA-B/Pou2af1 restricts Th2 differentiation”
